In patent US10034836B2, “Formulations of guanylate cyclase C agonists and methods of use” (SYNERGY PHARMACEUTICALS, INC., priority 2008, dated 2018):
Where no end group is shown, it is not given here. [ ]: non-standard residue; d: D form.

Assays:
T84 cells = assay: cGMP synthesis in T84 cells, GCC agonist alone or in combination with PDE inhibitors; format: cell-based, human; details: 100 μM, 30 min
Procedure: FIG. 9: Stimulation of cGMP synthesis in T84 cells by SP-304 (0.1 μM) either alone or in combination with the phosphodiesterase (PDE) inhibitors Sulindac Sulfone (100 μM) or Zaprinast (100 μM). T84 cells were exposed to various treatments, as indicated, for 30 min and the cell lysates were used to determine the intracellular cGMP levels. Data points shown are the average of duplicate measurements.
FIG. 10: Stimulation of cGMP synthesis in T84 cells by SP-304 (0.1 or 1.0 μM) either alone or in combination with incremental concentrations of phosphodiesterase (PDE) inhibitors, as indicated. T84 cells were exposed to various treatments, as indicated, for 30 min and the cell lysates were used to determine the intracellular cGMP levels. Data points shown are the average of duplicate measurements. […]
SS and ZAP in combination with SP-304 or SP-333 were evaluated to see if these PDE inhibitors had any synergistic effects on intracellular accumulation of cGMP (FIG. 9-12). […]
For the results shown in FIG. 9, cyclic GMP synthesis in T84 cells was assessed essentially as described in Shailubhai et al., Cancer Research 60, 5151-5157 (2000). […] Following centrifugation and the addition of NaOH (0.1 N) to neutralize the pH, intracellular cGMP levels were determined in lysates using a cGMP ELISA kit (Cat. No. 581021; Cayman Chemical, Ann Arbor, Mich.). […]

[1] = Stability in simulated intestinal fluid (SIF), biological activity by cGMP synthesis in T84 cells; format: in vitro ADME; details: SIF, two hour incubation (FIG. 7A)
Procedure: FIG. 2A: Biological activity of SP-304 incubated for varying lengths of time in simulated intestinal fluid (SIF). SP-304 samples were incubated for 0, 30, 60, 90, 150, and 300 min, respectively, and then tested for their ability to stimulate cGMP synthesis in T84 cells. The cGMP stimulation activity in the sample at 0 min of incubation time in SIF was taken as 100% biological activity. The activities of the other SP-304 incubation samples were calculated as the percentage of activity relative to that of the 0 min sample. Data points shown are the average of triplicate measurements±SD.
(§1) FIG. 7A: Biological activity of SP-333 incubated for varying lengths of time in simulated intestinal fluid (SIF). SP-333 samples incubated for 0, 5, 10, 30, 60, and 120 min, respectively, were tested for their ability to stimulate cGMP synthesis in T84 cells. The control sample marked as C120 was produced by incubating SP-333 with heat inactivated SIF for 120 min. Samples from the incubations were removed and heated at 95° C. for 5 min to inactivate digestive enzymes and then used to stimulate cyclic GMP synthesis in T84 cells. The cGMP stimulation activity in the sample at 0 min of incubation time in SIF was taken as 100% biological activity. The activities of the other SP-304 incubation samples were calculated as the percentage of activity relative to that of the 0 min sample. Data points shown are the average of triplicate measurements±SD.
as §1, with “FIG. 7B:” for “FIG. 7A:”, “of SP-332” for “of SP-333”, “incubating SP-332” for “incubating SP-333”
FIG. 7C: Biological activity of SP-304 incubated for varying lengths of time in simulated intestinal fluid (SIF). SP-304 samples incubated for 0, 10, and 60 min, respectively, were tested for their ability to stimulate cGMP synthesis in T84 cells. The control samples marked as C0 and C60 were produced by incubating SP-304 with heat inactivated SIF for 0 and 60 min, respectively. Samples from the incubations were removed and heated at 95° C. for 5 min to inactivate digestive enzymes and then used to stimulate cyclic GMP synthesis in T84 cells. The cGMP stimulation activity in the sample at 0 min of incubation time in SIF was taken as 100% biological activity. The activities of the other SP-304 incubation samples were calculated as the percentage of activity relative to that of the 0 min sample. […]
FIGS. 7G-1-7G-5: Incubation of SP-333 with SIF for 2, 6, 12 and 24 hrs. Effect of SIF digestion on the activity of SP-333 in T84 stimulation assay was determined (FIG. 7G-1) and samples were also analyzed by HPLC (FIGS. 7G2-5). […]
The stability of SP-304 was also evaluated after incubation with simulated intestinal fluid (SIF) by measuring its biological activity and by HPLC analyses (FIGS. 2A & 2B). […]

[2] = Stability in simulated intestinal fluid (SIF), HPLC analysis; format: in vitro ADME; details: SIF
Procedure: FIG. 2B: HPLC chromatographic spectra of SP-304 samples after incubation with: (A) heat-inactivated SIF for 300 minutes, or (B) SIF for 120 minutes. The arrows show the elution position of SP-304.
FIGS. 7D-1-7D-2: HPLC chromatograms of SP-304 incubated for 0 min in SIF (FIG. 7D-1) and 60 min in SIF (FIG. 7D-2), respectively. The arrows indicate the elution positions of the parent SP-304 peptides. […] These new peptide peaks represent degradation products of SP-304.
FIGS. 7E-1-7-E2: HPLC chromatograms of SP-332 incubated for 0 min in SIF (FIG. 7E-1) and 120 min in SIF (FIG. 7E-2), respectively. The arrows indicate the elution positions of the parent SP-332 peptides.
FIGS. 7F-1-7F-2: HPLC chromatograms of SP-333 incubated for 0 min in SIF (FIG. 7F-1) and 120 min in SIF (FIG. 7F-2), respectively. The arrows indicate the elution positions of the parent SP-333 peptides.
FIGS. 7G-1-7G-5: Incubation of SP-333 with SIF for 2, 6, 12 and 24 hrs. Effect of SIF digestion on the activity of SP-333 in T84 stimulation assay was determined (FIG. 7G-1) and samples were also analyzed by HPLC (FIGS. 7G2-5). The elution positions of the parent peptide and its metabolites are indicated by arrows.
The physical stability of SP-304 peptide exposed to SIF was evaluated by HPLC using the method described for SGF digestion. […]

intestinal GC-C receptor = target: T1, intestinal GC-C receptor (Homo sapiens, UniProt P25092); assay: Cyclic GMP stimulation assay in T84 cells; format: cell-based; details: 30 min exposure (FIG. 5)
T1 construct: confluent monolayers of T-84 cells in 24-well plates; host or cells: T84 human colon carcinoma cells
T1 sequence (P25092 24-1073): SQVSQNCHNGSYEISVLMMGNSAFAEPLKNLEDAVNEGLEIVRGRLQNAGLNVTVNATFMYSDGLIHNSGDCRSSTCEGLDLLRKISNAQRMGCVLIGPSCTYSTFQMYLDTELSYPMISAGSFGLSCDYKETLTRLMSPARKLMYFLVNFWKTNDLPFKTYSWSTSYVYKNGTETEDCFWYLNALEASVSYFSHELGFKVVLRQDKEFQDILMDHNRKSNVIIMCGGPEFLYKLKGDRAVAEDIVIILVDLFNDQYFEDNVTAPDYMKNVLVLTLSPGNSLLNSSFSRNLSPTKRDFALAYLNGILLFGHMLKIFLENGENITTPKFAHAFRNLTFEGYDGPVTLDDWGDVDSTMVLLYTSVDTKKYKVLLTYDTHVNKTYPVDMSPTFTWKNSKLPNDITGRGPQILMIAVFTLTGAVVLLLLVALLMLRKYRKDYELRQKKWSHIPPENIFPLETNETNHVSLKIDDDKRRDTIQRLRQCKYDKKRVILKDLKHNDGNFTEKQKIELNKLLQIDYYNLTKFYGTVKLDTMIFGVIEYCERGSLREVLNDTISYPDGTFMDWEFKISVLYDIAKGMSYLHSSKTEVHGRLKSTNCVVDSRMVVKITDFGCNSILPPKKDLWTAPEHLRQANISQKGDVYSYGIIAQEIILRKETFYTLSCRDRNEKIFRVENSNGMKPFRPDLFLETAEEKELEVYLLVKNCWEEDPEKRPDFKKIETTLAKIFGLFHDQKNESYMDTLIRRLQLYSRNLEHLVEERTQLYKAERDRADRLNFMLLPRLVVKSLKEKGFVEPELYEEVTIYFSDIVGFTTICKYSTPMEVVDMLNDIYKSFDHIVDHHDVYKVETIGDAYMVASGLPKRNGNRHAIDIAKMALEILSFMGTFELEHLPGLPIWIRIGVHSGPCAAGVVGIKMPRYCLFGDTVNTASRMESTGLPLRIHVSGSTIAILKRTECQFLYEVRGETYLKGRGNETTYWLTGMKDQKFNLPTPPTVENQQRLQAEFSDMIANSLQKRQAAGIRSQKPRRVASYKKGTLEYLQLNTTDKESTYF
Description: FIG. 4: Biological activity of truncated peptides of 16-mer SP-304, as measured by stimulation of cGMP synthesis in T84 cells. SP-338 15-mer peptide is indentical to SP-304 except that it lacks Leu at the C-terminus. SP-327, SP-329 and SP-331 lack Leu at their C-termini relative to their corresponding parents, SP-326, SP-328 and SP-330, respectively. Data points shown are the average of duplicate measurements.
FIG. 5: Stimulation of cGMP synthesis in T84 cells by SP-304 and similar analogs. T84 cells were exposed to test peptides for 30 min and cell lysates were then used to determine intracellular cGMP levels. Data points shown are the average of triplicate measurements±SD.
FIG. 6: Stimulation of cGMP synthesis in T84 cells by SP-339 (linaclotide) and other linaclotide analogs. T84 cells were exposed to test peptides for 30 min and cell lysates were then used to determine intracellular cGMP levels. Data points shown are the average of triplicate measurements±SD.
FIG. 8: Stimulation of cGMP synthesis in T84 cells by the peggylated analogs of SP-333. T84 cells were exposed to the indicated peptides for 30 min and cell lysates were used to determine intracellular cGMP levels. Data points shown are the average of triplicate measurements±SD.
After the 30 min incubation, the medium was aspirated and the reaction was terminated by the addition of 3% perchloric acid. Following centrifugation and the addition of NaOH (0.1 N) to neutralize the pH, intracellular cGMP levels were determined in lysates using a cGMP ELISA kit (Cat. No. 581021; Cayman Chemical, Ann Arbor, Mich.). Peptide incubations were run in duplicate, and samples taken from each incubation were run as duplicates in the ELISA test.
The ability of the GCC agonist peptide to bind to and activate the intestinal GC-C receptor was tested using T84 human colon carcinoma cell line. Human T84 colon carcinoma cells were obtained from the American Type Culture Collection. Cells were grown in a 1:1 mixture of Ham's F-12 medium and Dulbecco's modified Eagle's medium (DMEM) supplemented with 10% fetal bovine serum, 100 U penicillin/ml, and 100 μg/ml streptomycin. The cells were fed fresh medium every third day and split at a confluence of approximately 80%.
Biological activity of the GCC agonist peptides was assayed as previously reported (Shailubhai, et al., Cancer Research 60, 5151-5157 (2000)). Briefly, the confluent monolayers of T-84 cells in 24-well plates were washed twice with 250 μl of DMEM containing 50 mM HEPES (pH 7.4), pre-incubated at 37° C. for 10 min with 250 μl of DMEM containing 50 mM HEPES (pH 7.4) and 1 mM isobutylmethylxanthine (IBMX), followed by incubation with GCC agonist peptides (0.1 nM to 10 µM) for 30 min. The medium was aspirated, and the reaction was terminated by the addition of 3% perchloric acid. Following centrifugation, and neutralization with 0.1 N NaOH, the supernatant was used directly for measurements of cGMP using an ELISA kit (Caymen Chemical, Ann Arbor, Mich.).
An additional strategy to render peptides more resistant towards digestion by digestive proteases is to peggylate them at the N- and C-terminus. The peptide SP-333 was peggylated with the aminoethyloxy-ethyloxy-acetic acid (Aeea) group at the C-terminus (SP-347) or at the N-terminus (SP-350) or at both termini (SP-343). Cyclic GMP synthesis in T84 cells was measured by the method as described above.

Compound | intracellular accumulation of cGMP, PDE inhibitor alone (T84 cells) | biological activity remaining after incubation in SIF [1] [%] | HPLC analysis of parent peptide after incubation with SIF ([2]; 120 min) | degradation in SIF ([2]; up to 24 hours (FIG. 7G)) | ability to stimulate cGMP synthesis in T84 cells relative to SP-304 (intestinal GC-C receptor)
CC1=C(CC(=O)O)c2cc(F)ccc2/C1=C\c1ccc(S(C)(=O)=O)cc1 [Sulindac Sulfone] | did not enhance |  |  |  | 
dAsn^1-Asp^2-Glu^3-Cys^4-Glu^5-Leu^6-Cys^7-Val^8-Asn^9-Val^10-Ala^11-Cys^12-Thr^13-Gly^14-Cys^15-dLeu^16 ([dN]DECELCVNVACTGC[dL]; disulfide (positions not given here); also: two disulfides, pairing not given here) [SP-333] |  | ~100 | remained virtually intact | very little degradation | comparable ability
